Assay results reported in IntAct's records for PubMed 9436979.

B1: Mothers against decapentaplegic homolog 6 (Homo sapiens), O43541 (parent)
chain: MFRSKRSGLVRRLWRSRVVPDREEGGSGGGGGGDEDGSLGSRAEPAPRAREGGGCGRSEVRPVAPRRPRDAVGQRGAQGAGRRRRAGGPPRPMSEPGAGAGSSLLDVAEPGGPGWLPESDCETVTCCLFSERDAAGAPRDASDPLAGAALEPAGGGRSREARSRLLLLEQELKTVTYSLLKRLKERSLDTLLEAVESRGGVPGGCVLVPRADLRLGGQPAPPQLLLGRLFRWPDLQHAVELKPLCGCHSFAAAADGPTVCCNPYHFSRLCGPESPPPPYSRLSPRDEYKPLDLSDSTLSYTETEATNSLITAPGEFSDASMSPDATKPSHWCSVAYWEHRTRVGRLYAVYDQAVSIFYDLPQGSGFCLGQLNLEQRSESVRRTRSKIGFGILLSKEPDGVWAYNRGEHPIFVNSPTLDAPGGRALVVRKVPPGYSIKVFDFERSGLQHAPEPDAADGPYDPNSVRISFAKGWGPCYSRQFITSCPCWLEILLNNPR

Variants of: B1
Conditions: with smad1_human SMAD1, Q15797
Sequence of smad1_human SMAD1, Q15797 (Q15797 whole entry): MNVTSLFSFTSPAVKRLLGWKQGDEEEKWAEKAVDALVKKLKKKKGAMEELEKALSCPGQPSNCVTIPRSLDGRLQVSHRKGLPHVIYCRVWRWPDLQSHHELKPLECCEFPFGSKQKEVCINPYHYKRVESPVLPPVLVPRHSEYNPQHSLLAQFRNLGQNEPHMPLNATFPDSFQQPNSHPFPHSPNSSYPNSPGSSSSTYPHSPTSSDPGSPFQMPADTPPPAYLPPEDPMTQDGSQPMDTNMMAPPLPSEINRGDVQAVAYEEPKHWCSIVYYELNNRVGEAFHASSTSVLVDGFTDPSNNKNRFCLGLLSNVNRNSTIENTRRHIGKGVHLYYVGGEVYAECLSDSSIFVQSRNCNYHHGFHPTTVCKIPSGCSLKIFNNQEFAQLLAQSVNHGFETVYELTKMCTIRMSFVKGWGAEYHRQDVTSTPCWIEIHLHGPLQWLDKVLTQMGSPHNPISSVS

Variant	effect of a mutation on the interaction
MFRSKRSGLVRRLWRSRVVPDREEGGSGGGGGGDEDGSLGSRAEPAPRAREGGGCGRSEVRPVAPRRPRDAVGQRGAQGAGRRRRAGGPPRPMSEPGAGAGSSLLDVAEPGGPGWLPESDCETVTCCLFSERDAAGAPRDASDPLAGAALEPAGGGRSREARSRLLLLEQELKTVTYSLLKRLKERSLDTLLEAVESRGGVPGGCVLVPRADLRLGGQPAPPQLLLGRLFRWPDLQHAVELKPLCGCHSFAAAADGPTVCCNPYHFSRLCGPESPPPPYSRLSPRDEYKPLDLSDSTLSYTETEATNSLITAPGEFSDASMSPDATKPSHWCSVAYWEHRTRVGRLYAVYDQAVSIFYDLPQGSGFCLGQLNLEQRSESVRRTRSKIGFGILLSKEPDGVWAYNRGEHPIFVNSPTLDAPGGRALVVRKVPPGYSIKVFDFERSGLQHAPEPDAADGPYDPNSVRISFAKSWGPCYSRQFITSCPCWLEILLNNPR [G471S]	disrupting interaction
